Data on seven sequences can be found in the Immune Epitope Database (IEDB).

For the assay, the target named is HLA-A*02:01. Kind of assay: IEDB peptide-MHC binding, purified MHC/competitive/radioactivity; ≥ and ≤ were set here for values at or beyond the usual limits of such assays. The following applies: source organism: Homo sapiens.

For orientation: IC50 means the concentration that inhibits the measured activity by half. As for LLGICLTSTV, the IC50 was 102 nM. Turning to ALCRWGLLLA, the IC50 is 139 nM. On to KIWEELSML, for which the IC50 came to 167 nM.

On to HLFIYATCLGL, for which the IC50 was found to be 54.3 nM. With KMVELVHFL the figure was 9.8 nM.

In the case of KVAELVHFLL, the half-maximal inhibitory concentration (IC50) was 55.6 nM. Turning to GIMIGVLVGV, the IC50 was determined as 36.8 nM.
